Experimental data published in article PMC5834491, “CryoEM structure of the human SLC4A4 sodium-coupled acid-base transporter NBCe1” (Nature Communications, 2018).

Biological target: the molecule itself
Experiment: cryo-EM structure; single-particle cryoEM of NBCe1-A (~0.4 mg/ml) in amphipol PMAL-C8, 20 mM Tris-HCl pH 7.5, 150 mM NaCl; C2 symmetry imposed; 3.9 Å

B1: Human N-terminally Strep(II)-tagged wild-type NBCe1-A (SLC4A4 sodium-bicarbonate cotransporter) (natural protein, UniProt Q9Y6R1-2 1-1035, looked up)
chain: MSTENVEGKPSNLGERGRARSSTFLRVVQPMFNHSIFTSAVSPAAERIRFILGEEDDSPAPPQLFTELDELLAVDGQEMEWKETARWIKFEEKVEQGGERWSKPHVATLSLHSLFELRTCMEKGSIMLDREASSLPQLVEMIVDHQIETGLLKPELKDKVTYTLLRKHRHQTKKSNLRSLADIGKTVSSASRMFTNPDNGSPAMTHRNLTSSSLNDISDKPEKDQLKNKFMKKLPRDAEASNVLVGEVDFLDTPFIAFVRLQQAVMLGALTEVPVPTRFLFILLGPKGKAKSYHEIGRAIATLMSDEVFHDIAYKAKDRHDLIAGIDEFLDEVIVLPPGEWDPAIRIEPPKSLPSSDKRKNMYSGGENVQMNGDTPHDGGHGGGGHGDCEELQRTGRFCGGLIKDIKRKAPFFASDFYDALNIQALSAILFIYLATVTNAITFGGLLGDATDNMQGVLESFLGTAVSGAIFCLFAGQPLTILSSTGPVLVFERLLFNFSKDNNFDYLEFRLWIGLWSAFLCLILVATDASFLVQYFTRFTEEGFSSLISFIFIYDAFKKMIKLADYYPINSNFKVGYNTLFSCTCVPPDPANISISNDTTLAPEYLPTMSSTDMYHNTTFDWAFLSKKECSKYGGNLVGNNCNFVPDITLMSFILFLGTYTSSMALKKFKTSPYFPTTARKLISDFAIILSILIFCVIDALVGVDTPKLIVPSEFKPTSPNRGWFVPPFGENPWWVCLAAAIPALLVTILIFMDQQITAVIVNRKEHKLKKGAGYHLDLFWVAILMVICSLMALPWYVAATVISIAHIDSLKMETETSAPGEQPKFLGVREQRVTGTLVFILTGLSVFMAPILKFIPMPVLYGVFLYMGVASLNGVQFMDRLKLLLMPLKHQPDFIYLRHVPLRRVHLFTFLQVLCLALLWILKSTVAAIIFPVMILALVAVRKGMDYLFSQHDLSFLDDVIPEKDKKKKEDEKKKKKKKGSLDSDNDDSDCPYSEKVPSIKIPMDIMEQQPFLSDSKPSDRERSPTFLERHTSC
notes: Electrogenic sodium bicarbonate cotransporter 1, NBCe1-A variant, human, full length; Only the membrane domain was modelled (474 residues per protomer); Met1-Gly400, Cys583-Leu637, Ser713-Trp734, Glu814-Lys825 and Asp966-Cys1035 were not modelled. numbers count on: the NBCe1-A isoform (1035 residues); Homodimer in amphipol PMAL-C8; The pTT vector is named (Addgene), no plasmid number is printed; …
stoichiometry N: 2
